Laboratory results from PMC6019658 (Protein & Cell, 2017).

Target: the molecule itself
Assay: cryo-EM structure; single-particle cryo-EM of purified YnaI in amphipols; 20 mmol/L Mes pH 6.5, 200 mmol/L NaCl, 5 mmol/L DTT; 0.1 mg/mL on grids; homoheptamer

B1: YnaI channel (MscS-like mechanosensitive channel of E. coli) (natural protein, UniProt P0AEB5 1-343, looked up)
chain: MIAELFTNNALNLVIIFGSCAALILMSFWFRRGNRKRKGFLFHAVQFLIYTIIISAVGSIINYVIENYKLKFITPGVIDFICTSLIAVILTIKLFLLINQFEKQQIKKGRDITSARIMSRIIKITIIVVLVLLYGEHFGMSLSGLLTFGGIGGLAVGMAGKDILSNFFSGIMLYFDRPFSIGDWIRSPDRNIEGTVAEIGWRITKITTFDNRPLYVPNSLFSSISVENPGRMTNRRITTTIGLRYEDAAKVGVIVEAVREMLKNHPAIDQRQTLLVYFNQFADSSLNIMVYCFTKTTVWAEWLAAQQDVYLKIIDIVQSHGADFAFPSQTLYMDNITPPEQGR
stoichiometry N: 7
